Assay results taken from paper PMC5154475, “Dual Therapeutic Action of a Neutralizing Anti-FGF2 Aptamer in Bone Disease and Bone Cancer Pain” (Molecular Therapy, 2016).

Molecular target: T1, mouse recombinant FGF R3(IIIc)-Fc (mouse, UniProt Q61851 21-369)
T1 construct: FGF receptor 3, (IIIc) form, mouse, extracellular domain fused to IgG-Fc portion; also called FGFR3 (murine); source: bought: R&D Systems
T1 sequence (looked up): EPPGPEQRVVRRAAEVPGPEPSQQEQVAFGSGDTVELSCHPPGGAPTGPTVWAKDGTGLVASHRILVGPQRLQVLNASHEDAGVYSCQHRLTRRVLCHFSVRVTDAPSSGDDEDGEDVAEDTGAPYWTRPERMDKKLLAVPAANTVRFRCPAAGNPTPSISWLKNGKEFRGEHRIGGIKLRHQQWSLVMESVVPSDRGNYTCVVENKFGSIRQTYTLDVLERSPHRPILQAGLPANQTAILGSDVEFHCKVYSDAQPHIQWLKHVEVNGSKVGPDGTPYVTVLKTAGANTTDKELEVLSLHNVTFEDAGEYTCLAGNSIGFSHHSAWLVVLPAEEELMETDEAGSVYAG
Assay: SPR; Biacore 2000; FGFR/Fc fusion proteins immobilised onto a CM5 sensor chip via prebound protein A (1,000 RUs); FGF2 injected with or without the RNA aptamer APT-F2; for FGFR1: receptor 100 nmol/l, FGF2 100 nmol/l, heparin 100 nmol/l, APT-F2 150 nmol/l
Details: both partners purified

- binding result: binds
B1: murine FGF2 (ligand, UniProt P15655 10-154, looked up)
chain: PALPEDGGAAFPPGHFKDPKRLYCKNGGFFLRIHPDGRVDGVREKSDPHVKLQLQAEERGVVSIKGVCANRYLAMKEDGRLLASKCVTEECFFFERLESNNYNTYRSRKYSSWYVALKRTGQYKLGSKTGPGQKAILFLPMSAKS
notes: Fibroblast growth factor 2, mouse, recombinant; also called mouse FGF2; source: bought: PEPROTECH
